Laboratory results taken from article PMC2857972 (The Biochemical journal, 2008).

Target: the molecule itself
Test: crystal structure

B1: Bacillus megaterium SirC (precorrin-2 dehydrogenase), His6-tagged (enzyme)
chain: MYTVMLDLKGRSVLVVGGGTIATRRIKGFLQEGAAITVVAPTVSAEINEWEAKGQLRVKRKKVGEEDLLNVFFIVVATNDQAVNKFVKQHIKNDQLVNMASSFSDGNIQIPAQFSRGRLSLAISTDGASPLLTKRIKEDLSSNYDESYTQYTQFLYECRVLIHRLNVSKSRKHELLTEIIDDQYRLSLVKQREFLQQIEKYK
stoichiometry N: 2
